Test results as given in patent publication US20230399393A1, “METHODS TO EXTEND HEALTH-SPAN AND TREAT AGE-RELATED DISEASES” (National University of Singapore, priority 2020, published 2023).

Key:
[1] = tested on: C57Bl/6J mice; test: Gastrocnemius and soleus muscle weights; assay type: in vivo, mouse; conditions: age 110 weeks; vs IgG control
Procedure: From age 55 weeks (human equivalent of ˜45 years old (i.e. middle age)) to age 110 weeks (human equivalent of ˜75 years old), mice were administered with 40 mg/kg of either X203 or isotype-matched control IgG via intra-peritoneal injection every 3 weeks.
Mice also underwent body-composition assessment via echo MRI both at baseline (age 55 weeks) and at 108-109 weeks. This enabled calculation of the change in body fat mass and lean (muscle) mass in the X203 and IgG control treatment groups. Gastrocnemius and soleus muscles were also harvested from the mice at age 110 weeks and their weights were recorded. Data were analysed by 2-way ANOVA.

[2] = tested on: C57Bl/6J mice; test: Analysis of markers of cellular senescence in tissues; assay type: in vivo, mouse; conditions: at 110 weeks; p16INK4a, p21CIP1, p53, SA-ß-gal; vs IgG control antibody
Description: C57Bl/6J mice are randomised to receive either X203 or IgG control antibody at a dose of 40m/kg via IP injection every 3 weeks from age 55 weeks to age 110 weeks.
At 110 weeks, tissues are harvested from the mice cells of the relevant tissues and analysed for gene and/or protein expression of p16^INK4a, p21^CIP1 and p53, and for SA-ß-gal activity.

B1: X203: mouse anti-mouse IL-11 IgG antagonist antibody; VH SEQ ID NO:22, VL SEQ ID NO:23 (antibody, V domains shown)
VH: EVQLQQSGPELVKPGASVKIPCKASGYTFTDYNMDWVKQSHGKSLEWIGDINPHNGGPIYNQKFTGKATLTVDKSSSTAYMELRSLTSEDTAVYYCARGELGHWYFDVWGTGTTVTVSS
VL: DIVLTQSPASLAVSLGQRATISCRASKSVSTSGYSYIHWYQQKPGQPPKLLIYLASNLDSGVPARFSGSGSGTDFTLNIHPVEEEDAATYYCQHSRDLPPTFGGGTKLEIK
weight of gastrocnemius muscle as a proportion of body weight [1]: greater | weight of soleus muscle as a proportion of body weight [1]: greater | levels of markers of cellular senescence [2]: lower
